Laboratory results from US20230056992A1 (AGGAMIN, published 2023).

T1: endogenous sEng in pre-eclamptic patient serum (human, UniProt P17813 26-586)
T1 construct: Native protein in patient serum; the isoform or cleavage product is not defined; also called circulating sEng
T1 sequence (looked up): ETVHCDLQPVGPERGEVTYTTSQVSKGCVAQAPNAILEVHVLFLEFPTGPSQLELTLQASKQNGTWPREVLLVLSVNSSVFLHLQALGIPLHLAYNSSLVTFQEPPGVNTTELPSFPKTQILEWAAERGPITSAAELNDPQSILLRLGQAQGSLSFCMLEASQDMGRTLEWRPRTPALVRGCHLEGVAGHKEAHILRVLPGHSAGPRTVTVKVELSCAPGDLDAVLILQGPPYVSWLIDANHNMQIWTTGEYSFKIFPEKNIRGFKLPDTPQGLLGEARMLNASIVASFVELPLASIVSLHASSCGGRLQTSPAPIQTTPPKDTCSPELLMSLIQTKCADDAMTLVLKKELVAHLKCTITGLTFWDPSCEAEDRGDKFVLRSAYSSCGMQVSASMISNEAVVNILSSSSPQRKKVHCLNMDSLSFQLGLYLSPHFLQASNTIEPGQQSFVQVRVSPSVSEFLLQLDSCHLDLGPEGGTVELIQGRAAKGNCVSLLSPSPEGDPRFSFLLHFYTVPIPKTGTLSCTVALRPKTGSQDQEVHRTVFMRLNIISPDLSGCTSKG

T2: purified recombinant human sEng (human Endoglin ectodomain residues 26 to 586 with C-terminal 6x His tag, … (human, UniProt P17813 26-586))
T2 construct: range 26-586; also called spiked sEng; recombinant human sEng (amino acid residues 26-586)
T2 sequence: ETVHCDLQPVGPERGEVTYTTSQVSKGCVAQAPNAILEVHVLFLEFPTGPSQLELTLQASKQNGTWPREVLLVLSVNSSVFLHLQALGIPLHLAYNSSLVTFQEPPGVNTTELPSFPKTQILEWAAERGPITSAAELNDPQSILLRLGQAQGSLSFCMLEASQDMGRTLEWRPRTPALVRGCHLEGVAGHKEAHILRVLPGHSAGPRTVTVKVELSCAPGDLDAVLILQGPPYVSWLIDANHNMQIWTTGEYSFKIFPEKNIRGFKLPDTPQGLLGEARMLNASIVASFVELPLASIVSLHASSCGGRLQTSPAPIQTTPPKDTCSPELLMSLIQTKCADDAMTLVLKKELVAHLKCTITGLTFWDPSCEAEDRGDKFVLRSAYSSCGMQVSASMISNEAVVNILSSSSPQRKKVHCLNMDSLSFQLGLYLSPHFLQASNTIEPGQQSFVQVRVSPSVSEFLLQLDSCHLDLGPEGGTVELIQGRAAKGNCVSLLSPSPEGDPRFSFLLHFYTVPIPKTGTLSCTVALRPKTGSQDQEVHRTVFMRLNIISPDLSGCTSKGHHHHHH


What was measured:
[1] = biological target: T3, endogenous sFlt-1 in pre-eclamptic patient serum (human, UniProt P17948-2 27-687, limits assumed); assay: 0.1 mL column of antibody-conjugated beads, pre-eclamptic patient serum
T3 construct: Native protein in patient serum; the isoform is not defined; also called circulating sFlt-1
Description: (§1) Circulating sEng and sFlt-1 proteins are elevated in pre-eclampsia patients and are postulated to be major causal factors of disease onset and progression. To test whether a cENG10/AG10B dual device is capable of removing these endogenous sEng and sFlt-1 proteins from patient serum, micro-scale 0.1 mL columns conjugated with cENG10, AG10B, or both cENG10 and AG10B MAbs were prepared. cENG10 column specifically removed>90% of endogenous sEng in pre-eclamptic serum but not endogenous sFlt-1, and the AG10B column specifically removed>90% of endogenous sFlt-1 in pre-eclamptic serum but not endogenous sEng. The cENG10/AG10B dual device column, in which a mixture of the two antibodies at 1 mg each per mL beads were conjugated simultaneously, removed>90% of both sEng and sFlt-1 proteins.

[2] = biological target: T1, endogenous sEng in pre-eclamptic …; assay: as above
Description: as §1

[3] = biological target: T2, purified recombinant human sEng (human …); assay: 1 mL column, 0.2 mg MAb per mL Sepharose beads, flow rates 0.25-2.00 mL/min; input vs flow-through
Description: A 1-ml cENG10 device column was evaluated for depletion of spiked sEng in horse serum. For each column, 0.2 mg cENG10 or AG10B MAb was covalently conjugated to 1 mL of CNBr-activated Sepharose 4FF beads for 0.2 mg per mL beads ratio. For each test, 10 mL of serum containing 60 ng/mL of sEng, median concentration in severe pre-eclampsia patients, was applied for one cycle over the column. The first 1 ml containing pre-equilibration buffer was not collected in the flow-through (FT) fraction and the last 1 mL of input remaining in column was chased with 1 CV of PBS buffer and pooled into the FT fraction. The % sEng depletion was calculated by dividing the difference in concentration between input and FT by input concentration: […]

T3 sequence (P17948 other isoform, or with tags, fused parts or gaps limits assumed): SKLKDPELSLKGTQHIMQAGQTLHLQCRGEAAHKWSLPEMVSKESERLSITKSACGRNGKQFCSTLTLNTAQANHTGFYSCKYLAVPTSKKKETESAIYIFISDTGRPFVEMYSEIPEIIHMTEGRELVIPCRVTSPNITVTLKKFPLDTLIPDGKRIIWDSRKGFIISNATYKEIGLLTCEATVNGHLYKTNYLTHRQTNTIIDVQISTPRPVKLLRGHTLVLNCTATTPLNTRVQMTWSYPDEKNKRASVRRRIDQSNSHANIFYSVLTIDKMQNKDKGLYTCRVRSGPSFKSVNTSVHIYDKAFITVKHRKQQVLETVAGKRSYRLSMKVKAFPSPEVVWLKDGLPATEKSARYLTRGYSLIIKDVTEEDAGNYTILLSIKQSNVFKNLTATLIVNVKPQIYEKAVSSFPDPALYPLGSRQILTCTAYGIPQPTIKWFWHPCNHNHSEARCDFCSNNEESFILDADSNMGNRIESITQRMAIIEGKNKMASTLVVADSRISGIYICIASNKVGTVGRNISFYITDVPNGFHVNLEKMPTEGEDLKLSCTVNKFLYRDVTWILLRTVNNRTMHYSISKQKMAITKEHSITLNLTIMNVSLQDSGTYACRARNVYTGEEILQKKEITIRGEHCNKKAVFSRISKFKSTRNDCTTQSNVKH

binding result [1]	binding result [2]	Binder	binding result [3]
no binding		chimeric anti-sEng antibody cENG10 (antibody, human IgG1, kappa, N297Q, V domains shown, Chimeric mouse/human IgG1 kappa with N300Q; also called anti-human sEng MAb; cENG10 column) VH: EVQLEQSGPEVVKPGTSVKISCKTSGYTITEHTLHWIKQNQGKSLEWIGGINFDNGGTTYRQKFKDKATLTVDKSSSTAFMELRSLTSDDSAVYFCARRAYYYGSAFDYWGQGTTLTVSS VL: ENVLTQSPAIMSASLGEKVTMTCRASSSVNYVYWYQQKSDASPKLWIYYTSNLAPGVPARFSGSGSGNSYSLTISSMEGEDAATYYCQQFISFPYTFGGGTKLEIKR	
	no binding	chimeric anti-sFlt-1 antibody AG10B (antibody, V domains shown, Chimeric mouse/human IgG1 kappa with N298Q; It served as the negative control for sEng depletion; also called AGB10; AB10B) VH: QVQLQQSGPELVKPGASVKMSCKASGYTFTDYVISWVKQRTGQGLEWIGEIYPGSGSIYYNEKFKGKATLTADTSSNTAYMQLSSLTFEDSAVIFCARGHYYGYFDYWGQGTTLTVSS VL: DIVMTQSHKFMSTSVGDRVSITCKASQDVTITVAWYQQKPGQSPKLLIYSASYRYTGVPDRFTGSGSGTDFTFTISSVQAEDLAVYYCQQHYTTPWTFGGGTKLEIKR	no binding (tested: 60 ng/mL sEng in 10 mL horse serum)
